Test system: K4 kissing-loop RNA reporter
Test: apparent KD of K4 kissing-loop reporter; higher = weaker reporter binding
Conditions: Eterna round: R107
Method: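 RNA-MaP round R107: designed RNA switches with theophylline, tryptophan, arginine or FMN aptamers are transcribed on-chip within common flanks. They are titrated with a labelled K4 kissing-loop RNA reporter in RNA-MaP buffer (100 mM Tris pH 7.5, 80 mM KCl, 4 mM MgCl2), without ligand or with the indicated ligand. Median apparent KD per design.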

[1] = input ligand: theophylline 20 uM
[2] = input ligand: tryptophan 2.4 mM
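Note: bound reporter read as fluorescence of individual clusters on recovered sequencing chips by microscopy, with normalized cluster intensities fitted with a binding model.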

Sequence | apparent KD of K4 kissing-loop reporter (input ligand: FMN 200 uM) [nM] | apparent KD of K4 kissing-loop reporter (input ligand: arginine 13.2 mM) [nM] | apparent KD of K4 kissing-loop reporter (input ligand: none) [nM] | apparent KD of K4 kissing-loop reporter [1] [nM] | apparent KD of K4 kissing-loop reporter [2] [nM]
CCGAUACAUUAUUCUACGGCCGAGAGUGAUACCAGCCGUAUUUGUGGCCCUUGGCAGCGCAGAUGCAGUGAUGUUGCAUACUUGU [Same State Theophylline A GF 20] | 68.7 | 93.7 | 78.1 | 96.6 | 63.5
GCCGUAGAUUGAAGGAGCGGUUCAUCAAUUCAAGUCGAGUGAUGUUCGACGAUUCUCAGUAACCAGGUAGGUCGCAAUCUACGGC | 175 | 142 | 150 | 171 | 143
AUCAUUAGUUCGGCCGCCACUCCAGUGAUGUUGGAGGGACGCAUAAUAUGCGCGCGGCCAACUAGGAGGACCGGGAACUUUAAGC [Intionge] | 120 | 122 | 118 | 126 | 103
CCGGCCCAGCCGGAUACCAGUGCGCCGCAGGGAACGGCGGGCCCAGAGUGAUGUUCGGGACACCCUUGGCAGCCGCCUGGGUCGU [#2 Same State - Theophylline B Attempt #28 (HarryS)] | 414 | 262 | 365 | 258 | 274
AAGUGAUGUUGUAGUGAUGUUGUGAUGUUGCAGGAUAUAUAGUGAUGUAGAAGGGUAUGUGCAGUGUUCUUAUUUGAGUGUUGAU [zffdmullin] | 80.1 | 33.9 | 64.7 | 63.2 | 64
AAGAGGUAGGCGGCCGCCACUUGUUGUGAACACAUACGAGCCAGUGAUGUUGGUAUUGUGGGCGGAAGGACCGGGCCUACCUGAA [Exclusion - Tryptophan B (Freestyle 20)] | 317 | 304 | 320 | 328 | 386
CCUUGGAUUAGCUGUACUUUUCUACGGGAUACCAGUGCGUAACACCACCCUUGGCAGCCCGAUUACCGGCAGUGAUGUUGCCUCU [theeternabot_sameState_KL_Theo_A_41] | 185 | 282 | 244 | 245 | 192
AGAAGAGUGAUGUUCUUCUAUAUCUCAGAAGGAGCGACAUAAAUGUCAGGUAGGUCGCUGAGAUGAAAUCUCACACAGAUCUUGG [Arg A SS t8] | 127 | 149 | 154 | 182 | 109
AAUACCUGAGUGAUGUUCAGGGAAUCAGAAGGAGCGUCAAUUAUGACAGGUAGGUCGCUGAAUACAUGUGUGUAUACACAUGUAC [Arg A SS t4] | 217 | 189 | 278 | 243 | 229
UCAUGAAAGACGGCCGCCACUGAUGCUGGAGUGAUGUUUCGGACAUAGUAGAGUGAUGUUCUGCGCAGGACCGGGUCGUCAUGAA [KL-SSTryp-B10 #double Kiss] | 132 | 64.6 | 134 | 130 | 62
UAUGAAGGUGGAGGAUAUUGAUUGAGCCUUGGUCAGGAGUGAUGUUCCGGGAAGCCUUGGGUUCAUCGAGAAGGCCAAGGAUAGU [#09 K4 FMN B Same State] | 151 | 209 | 221 | 274 | 232
UGACUGGAUGGAAGGAGCGCUAAACUCCUAGUGAUGUUAGGGAUAUGAGGCAAAGCCUUGAAGCAGGUAGGUCGCCAUCUAGUCU [FiskerMod 26 - Jieux - Same State - Arginine B] | 141 | 126 | 146 | 146 | 142
UGACUGGACUGAAGGAGCGCUAAACUCCUAGUGAUGUUAGGGAAACGAGACAAAGUCUCGAGGCAGGUAGGUCGCAGUCUAGUCU [FiskerMod 1 - Jieux - Same State - Arginine B] | 254 | 199 | 261 | 265 | 244
AGGGAACGCACGGAUACCAGACUCAUAGUGAUGUUGUGGGUAUAAAUUAGCGCAUACACAGUCCCUUGGCAGCCGCUGAAUGGCC [theeternabot_exclusion_KL_Theo_B_1] | 829 | 644 | 971 | 835 | 505
AAGGACUGCCAGGGAACACACUCAUUAUGGGAGGAUAUGUUAGCUGACAGAAGGCCCAGUGAUGUUGGGCCGGCGGGCUGUCAGG [Diargean] | 244 | 202 | 218 | 237 | 177
CACUGGGCGAGUGAUGUUCGCUCACGUGAUACCAGUGCCAUCCAACACCCUUGGCAGCAUGCGGGCAGUGAUGUUGUCCAAAGAA [Exclusion Theophylline A GF9] | 204 | 187 | 207 | 208 | 184

Sequence | apparent KD of K4 kissing-loop reporter (input ligand: FMN 200 uM) [nM] | apparent KD of K4 kissing-loop reporter (input ligand: arginine 13.2 mM) [nM] | apparent KD of K4 kissing-loop reporter (input ligand: none) [nM] | apparent KD of K4 kissing-loop reporter [1] [nM] | apparent KD of K4 kissing-loop reporter [2] [nM]
AGUACAAUGGCGGCCGCCACUCAACGCAGAUCAAAGAUCUGCGUUCACUCAGUGAUGUUGAGUGAGAGGACCGGGCCUUUGUACA [Omei KL Tryp B SS B v5] | 221 | 180 | 190 | 170 | 141
UGAUACCAGACGGCCGCCACUCCCGCAGGUCAAAGACCUGCGAAGAAGGUUUUUUAGUGAUGUUGGAGGACCGGGUCUGGUAUCU [FiskerMod 20 - Jieux - Exclusion - Tryptophan B] | 311 | 92.6 | 257 | 140 | 689
AGUGGACGUUACCGGAGUGAUGUUUCGGAUACCAGACACGAAAGUGUCCCUUGGCAGCCGUAGUGAUGUUACGGAGUUCACUAAA [KL-XTheo-A12 #KL 2] | 125 | 61.5 | 103 | 88.7 | 85.1
GCUAAGGAGUGAUGUUCCAAGUGAUGUUAACGAGGACCGGUACGGCCGCCACUCGAUACGGCCGGAAAGUAAGAUAAACUACAGU [Same State - Tryptophan A (Freestyle 4)] | 77.5 | 59.8 | 77.1 | 75.8 | 64.7
AGGAGUGAUGUUCCUACAUACACGGUCCGACGAGGACCGGUACGGCCGCCACUCGCGUCCCAGUGAUGUUGGGAUUUGGCGUACG [Exclusion Tryptophan A GF 17] | 162 | 155 | 155 | 171 | 154
CUUGGAAGGACGGCCGCCACUGGGCAGUGAUGUUGCCCGAGUUGGUAACGCAGUGAUGUUGCGUCCAGGACCGGGUCCUAGGAAU [Exclusion Tryptophan B GF 25] | 141 | 113 | 112 | 106 | 139
UUUCGGUUCUGAGGAUAUUCGGACAAAUAUAGUGAUGUUGUAUAAGGAGGAGGGUGUUGGGAGUGAGGAGAAGGCAGAAGAGGAU [ExFMNB.S] | 838 | 707 | 759 | 670 | 473
AGGAUGUAGUGAUGUUAUAUAAGAAGUAAACGAGGACCGGUACGGCCGCCACUCGAAGCGGCUACUAGCGUGUUGCGAGGUGCGC [ExTryptoA.Cd] | 370 | 324 | 229 | 230 | 197
AGUGUUAGGUUAGAUACCAGCCGUCUGUAGAUAAUCCUCAGACCGCCAGUGAUGUUGGCAGGCCCUUGGCAGCUAACAGAACAGA [Orbediqu] | 238 | 206 | 210 | 154 | 214
AAGCGUAAAAUGGCGGACAUACUGCUCCCACGAGGACCGGUACGGCCGCCACUCGAGUGCGGCAGUGAUGUUGCCGCCUUAGCGU [KL-XTryp-A20] | 92.9 | 81.3 | 92 | 80.3 | 81.9
ACGCAUGGGCAAGGAUAUGGUAGUGAUGUUACCUUUGCGGUGCCGGGAACGAAUGACGGUCAUGCGCCAGAAGGUGCUCAGACAA [theeternabot_exclusion_KL_FMN_B_23] | 203 | 180 | 178 | 250 | 183
GAGCCAGAGGUUGCUGCGGGUUUCAGAGAUACCAGCCGUAUUGUAGGCCCUUGGCAGCUCGAGUGAUGUUCGAGCCGCCUCUGGC [Eredorxela] | 111 | 102 | 120 | 129 | 109
GGCACUUUUGCUUGGAACCGUCAAGCUCGAUAGGAUAUGCCGAAAGGCAGAAGGAUUGACCUACAGAGUGAUGUUCUGCGUGCCU | 791 | 378 | 830 | 288 | 408
UCAUCAUGAUGGUAGUAACCGCAUUGGGAGCGAGGACCGGUACGGCCGCCACUCGAAAUGUACAUAGCAGUAGUGAUGUUGCUGC [theeternabot_sameState_KL_Trp_A_47] | 134 | 125 | 121 | 116 | 115
CAUCUGGACCAAGGAUAUGUGGGCAUAAUAAAAUUACCACCUUAUUUGCAGUAAGUGAUGUUUAACACAGAAGGUGGACAUAGAC [theeternabot_exclusion_KL_FMN_B_10] | 1170 | 725 | 1170 | 701 | 822

— the supplement of paper PMC9170038
